In US20220151976A1 (UNIVERSITY OF TOLEDO, published 2022):

Columns and labels:
[1] = molecular target: T1, Eukaryotic initiation factor 4A (eIF4A1), endogenous in 231S cells (human, UniProt P60842 2-406); experiment: proximity ligation assay in 231S cells, CXCL12 5 min against unstimulated
T1 construct: Endogenous intracellular protein; eIF4A1 antibody (Cohesion CQA1180) used in PLA and IP, eIF4A C32B4 in Western blots
Procedure: 100 nM AMD3465 was added 30 min prior to stimulation. […] Representative images of the PLA experiment are provided. Quantification indicates the average number of interactions/cell across multiple independent fields.

[2] = molecular target: T2, Eukaryotic initiation factor 4B (eIF4B), endogenous in 231S cells (human, UniProt P23588 1-611); experiment: reciprocal co-immunoprecipitation (LASP1 IP, eIF4B blot) from 231S lysate, densitometry against 0 min
T2 construct: Endogenous protein in lysate
T2 sequence (P23588 whole entry): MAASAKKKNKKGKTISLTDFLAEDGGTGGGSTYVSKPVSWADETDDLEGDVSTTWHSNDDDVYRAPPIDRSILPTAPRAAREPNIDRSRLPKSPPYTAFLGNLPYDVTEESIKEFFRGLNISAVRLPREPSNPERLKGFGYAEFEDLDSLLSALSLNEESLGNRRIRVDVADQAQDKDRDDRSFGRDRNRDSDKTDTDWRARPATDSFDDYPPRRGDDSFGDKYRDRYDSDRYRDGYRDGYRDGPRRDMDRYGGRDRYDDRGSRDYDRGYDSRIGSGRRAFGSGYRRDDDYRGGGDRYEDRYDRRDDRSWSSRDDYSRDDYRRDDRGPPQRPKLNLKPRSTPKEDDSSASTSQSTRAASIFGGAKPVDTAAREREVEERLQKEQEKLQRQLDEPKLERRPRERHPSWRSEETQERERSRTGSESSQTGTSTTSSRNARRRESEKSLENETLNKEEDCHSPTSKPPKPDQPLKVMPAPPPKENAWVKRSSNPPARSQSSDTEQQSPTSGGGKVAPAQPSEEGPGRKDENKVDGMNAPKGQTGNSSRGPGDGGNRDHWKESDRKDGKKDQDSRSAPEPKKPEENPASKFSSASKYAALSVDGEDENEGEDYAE
Procedure: (§1) 1 mg of total protein lysate was employed in all immunoprecipitation reactions. eIF4B was immunoprecipitated by using 2 μg of eIF4B antibody (Cell Signaling Technology, Danvers, Mass., Cat. No. 13088). Mouse (G3A1) mAb IgG1 Isotype Control (Cell Signaling Technology, Danvers, Mass., Cat. No. 5415) served as the mock control. Next, eIF4A was immunoprecipitated using 2 μg of eIF4A1 antibody (Cohesion Biosciences, London, Purley, Cat. No. CQA1180). His-Tag (D3L10) XP® Rabbit mAb (Cell Signaling Technology, Danvers, Mass., Cat. No. 12698) was employed for the mock condition. […] As in the eIF4B Co-IP, mouse (G3A1) IgG1 isotype mAb was employed as the mock control. Prior to immunoprecipitation, lysates were pre-cleared with 20 μL of PureProteome™ Protein G Magnetic Beads (Millipore, Billerica, Mass., Cat. No. LSKMAGG10) for 2 H at 4° C. Immunoprecipitation reactions were then allowed to proceed with 20 μL of protein G magnetic beads and the appropriate amount of antibody for 2 h at 4° C. Beads were washed thrice with Co-IP buffer. To avoid heavy chain contamination (55 kDa) in the eIF4A Co-IP, antibodies were cross-linked using BS³ (according to Millipore recommendations). Proteins of interest were analyzed by sodium dodecyl sulfate-polyacrylamide gel electrophoresis (SDS-PAGE) and Western blotting.

[3] = molecular target: eIF4E, endogenous in 231S cells (human) (UniProt P06730); experiment: m7GTP pulldown from 231S lysate after CXCL12, LASP1/eIF4E densitometry against 0 min; association may be through the complex
eIF4E, endogenous in 231S cells (human), sequence (P06730 2-217 limits assumed): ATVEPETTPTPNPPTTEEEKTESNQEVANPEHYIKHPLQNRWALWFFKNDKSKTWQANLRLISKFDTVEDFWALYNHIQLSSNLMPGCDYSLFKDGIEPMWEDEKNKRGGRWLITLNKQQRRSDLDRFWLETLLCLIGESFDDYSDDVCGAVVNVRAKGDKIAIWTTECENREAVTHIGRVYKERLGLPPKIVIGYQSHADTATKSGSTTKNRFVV

[4] = molecular target: T1, Eukaryotic initiation factor 4A …; experiment: reciprocal co-immunoprecipitation (LASP1 IP, eIF4A blot) from 231S lysate, densitometry against 0 min
Procedure: as §1

T1 sequence (P60842 2-406 limits assumed): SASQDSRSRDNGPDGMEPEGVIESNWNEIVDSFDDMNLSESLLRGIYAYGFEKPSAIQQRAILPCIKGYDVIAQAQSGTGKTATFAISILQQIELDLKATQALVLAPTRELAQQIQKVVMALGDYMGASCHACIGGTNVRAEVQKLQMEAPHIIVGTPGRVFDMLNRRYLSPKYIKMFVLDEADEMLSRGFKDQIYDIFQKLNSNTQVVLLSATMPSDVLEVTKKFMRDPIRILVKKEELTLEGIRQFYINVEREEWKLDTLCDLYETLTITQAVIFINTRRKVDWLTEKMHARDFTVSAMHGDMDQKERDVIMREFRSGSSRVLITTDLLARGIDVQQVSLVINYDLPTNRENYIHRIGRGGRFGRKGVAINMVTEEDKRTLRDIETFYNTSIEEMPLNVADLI

fold stimulation of the interaction [1]: 3 fold
fold increase in association [2]: 7.5 fold
fold increase in association [3]: 2.2 fold
fold increase in association [4]: 19.1 fold
B1: LIM and SH3 Protein 1 (LASP1), endogenous in 231S cells (other, human, UniProt Q14847 1-261, looked up)
chain: MNPNCARCGKIVYPTEKVNCLDKFWHKACFHCETCKMTLNMKNYKGYEKKPYCNAHYPKQSFTMVADTPENLRLKQQSELQSQVRYKEEFEKNKGKGFSVVADTPELQRIKKTQDQISNIKYHEEFEKSRMGPSGGEGMEPERRDSQDGSSYRRPLEQQQPHHIPTSAPVYQQPQQQPVAQSYGGYKEPAAPVSIQRSAPGGGGKRYRAVYDYSAADEDEVSFQDGDTIVNVQQIDDGWMYGTVERTGDTGMLPANYVEAI
notes: Endogenous intracellular protein; detected or immunoprecipitated with mouse LASP1 antibody 8C6 (Biolegend 909301); also called endogenous LASP1
